Experimental data taken from the supplement of paper PMC11865577.

Each sequence was assayed on TO-3-N3-2 (biotin conjugate) (assay: pull-down binding Z-score (relative to library population); higher = stronger binding). Settings: RNA library: Library-2.
Outline: (§1)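 Biotin-conjugated small molecule (100 pmol) on streptavidin beads was incubated with 1 μg of heat-folded Cy5- or Cy3-end-labelled RNA library in phosphate/NaCl/KCl buffer at 25 °C for 60 min. Following three washes, RNA was eluted with hot SDS and hybridised at 55.5 °C for 20 h to a DNA barcode microarray. The binding value is a Z-score computed from the library mean and standard deviation, after subtraction of beads without compound and averaging of barcoded replicate probes with the highest and lowest excluded.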

Sequence	pull-down binding Z-score
GUUUUACUAUGAUGAGGUGUGCCAUCCACCCCAUCAUAGUAAAC [hsa-mir-606]	-0.139
GUUUUUUAAGAGGAAGGGAGACCUAAGCUAGCA [hsa-mir-4481]	0.475
UAAAGAGUAUUCAACAUC [hsa-mir-1245b]	0.0553
UAAGAGUAAUAGCUCUCUAGGUUAUUAUGAAUA [hsa-mir-5692c-1]	0.109
UAAGUGUCCUAGCACUUA [hsa-mir-374b]	-0.524
UAAGUGUUAUAGCACUUA [hsa-mir-374a]	-0.541
UAAGUUGUGAUCAUACCA [hsa-mir-1273g]	-0.0944
UAAUAACUGACAAACAGACAAUUG [hsa-mir-4774]	-0.145
UAAUAGCAAUCCUUAAAUGCCAUUA [hsa-mir-4477b]	-0.0844
UAAUAUGCACUAUAAAUAUAUUG [hsa-mir-450a-1]	-0.431
UAAUAUGUAAUAUAAAUGUAUUG [hsa-mir-450a-2]	-0.134
UAAUCACAGGCCACAUUUCUGAAUA [hsa-mir-1295b]	-0.391
UAAUGAUUGGAGUCAUUUUCAGAGCAUUA [hsa-mir-3202-1]	-0.262
UAAUGCUCUGAAAAUGACUCCAAUCAUUA [hsa-mir-3202-2]	-0.069
UACAAUUUUUUUUUUUUUAAAUUUUA [hsa-mir-1303]	0.111
UACAUAGUUCAUGCUGAGGCCGGGAUUUCAUGCAGAAAACUGGUUGCAAAAGGUGCUGAAG [hsa-mir-6085]	0.378
UACUAACAGCACUGGAGGGUGUA [hsa-mir-142]	0.107
UAGACAAUGGUUUCAUCAUUUCGUCUG [hsa-mir-4427]	-0.103
UAGAGGGUAAAAUUAAUAACCUUCUA [hsa-mir-628]	0.114

Sequence	pull-down binding Z-score
UAGAGUAGGAGAGCCCACUGA [hsa-mir-6846]	0.147
UAGAUACUCAGGAGGGUGAGUAUCUA [hsa-mir-5689]	-0.33
UAGAUGAAUAAAUGAAUGACUCAUCA [hsa-mir-545]	0.146
UAGAUGUUAUAAAAAUAUAUAUCUG [hsa-mir-4680]	-0.189
UAGGAGCUGUGCCUCCUGGCCUAUUCCUGUUCGUG [hsa-mir-8056]	-0.167
UAGGAUUUGGGAGUUAUACUA [hsa-mir-5690]	-0.0337
UAGGCCCACUGCUCAGUGGAGC [hsa-mir-7847]	-0.0119
UAGGCUGUGCAGGUCCCAAUGGGCCUA [hsa-mir-26a-1]	-0.0454
UAGGCUGUUUCCAUCUGUGAGGCCUA [hsa-mir-26a-2]	-0.375
UAGGGCGCGGAGGGCGGACCGGGAA [hsa-mir-638]	6.57
UAGGGCUGGAUGGUAGGGCCCA [hsa-mir-6890]	0.343
UAGGUGGUCGAAGUCAUCCACA [hsa-mir-7153]	0.264
UAGGUUGUGUGCUGUCCAGCCUG [hsa-mir-26b]	-0.429
UAGGUUGUUAUUUAAUCCAACU [hsa-mir-190a]	-0.00409
UAGUACAGGUGAGAUUGUACUG [hsa-mir-3920]	-0.323
UAGUCUAAUAGGGACUA [hsa-mir-5681b]	-0.0587
UAGUGGAAAGAGCACUG [hsa-mir-378b]	-0.158
UAUAACUUGAAGAAUUCAAAUAGUCAUG [hsa-mir-3146]	-0.34
UAUAGCUACAUCAGUUAUAACUAUAUCAGUUAAA [hsa-mir-5582]	0.447

Sequence	pull-down binding Z-score
UAUAGGAAGGAAAUCUUAU [hsa-mir-6129]	-0.279
UAUAGUGUGUUUGAUUUGCACUGUA [hsa-mir-4703]	-0.198
UAUAUACUGAUGUAAUUUUCCUUGGAUUUAUAUGCAGUACUGAG [hsa-mir-6130]	0.252
UAUAUGCUUUUUAAAUGGGGCACAGA [hsa-mir-5586]	0.0323
UAUAUUCGGUUUAUUGACAUGGAAUAUA [hsa-mir-381]	0.106
UAUCUAUAUAUAUGUGUA [hsa-mir-3171]	-0.0303
UAUGAAGGUAAGCAUUUUUGUA [hsa-mir-3935]	-0.263
UAUGACCAGGCCAUAGUAAACAUCAUA [hsa-mir-4744]	0.312
UAUGCAAAGCUCUGACAGUGUUUCACUUGCUA [hsa-mir-7848]	-0.145
UAUGCCAUUAAAAGUAAUGGUAAA [hsa-mir-548aj-1]	-0.508
UAUGCCUACAAAAUCCCUCCAGACUGGCAUA [hsa-mir-4666a]	-0.346
UAUGUGAUUCUACUGCUCACUCAUAUA [hsa-mir-135a-1]	-0.191
UAUUCGCUUUAUUGACUUCGAAUA [hsa-mir-369]	-0.144
UAUUCUCUAU [hsa-mir-2054]	-0.276
UAUUCUGAUGUCCAAGUGGAAA [hsa-mir-372]	-0.345
UAUUGCAAAGAUUUUCAAUA [hsa-mir-3915]	-0.307
UAUUGGGCCAAUUCCCCCAAUG [hsa-mir-4781]	-0.791
UAUUGUGUUGAUCAACAAUA [hsa-mir-5590]	-0.465

These sequences were tested on G-clamp-N3 (biotin conjugate) in the same assay as above. Settings: RNA library: Library-1 (pre-miRNA loops + repeats).
Outline: as §1

Sequence	pull-down binding Z-score
GUUGCUUAGAUUACAUGUAAC [hsa-mir-890]	-0.226
GUUGGAUGGUCUAAUUGUGAAGCUCCUAAC [hsa-mir-141]	-0.549
GUUGGCUCAAGAAAGGGAGAUAGAUGGUAGCCC [hsa-mir-6884]	0.473
GUUGGGAUUGAGUUUUGAACUCGGC [hsa-mir-196a-2]	0.29
GUUGGGCAUCCACAGUCUCCCACC [hsa-mir-1911]	-1.43
GUUGGGGAACAGGUGGUUAGCACUUCAU [hsa-mir-5196]	0.351
GUUGUUGUCUUACUGCGCUCAACAAC [hsa-mir-7-2]	0.767
GUUGUUGUGAGCAAUAGUAAGGAAGCAAU [hsa-mir-34a]	0.984
GUUGUUUUUAGAUAACUAAAUCGACAAC [hsa-mir-7-1]	0.109
GUUUACGUGAUUCCUGGUUAAUC [hsa-mir-376b]	0.375
GUUUAUUUUGUAGC [hsa-mir-4317]	-1.09
GUUUCUAAAAAAAUAAAAAGUUAAAAAAAUUUAUGUUAACGUGUAAUGUGUUUACUAAUUUUUUUUUUUUUUUUUGGAGAC [hsa-mir-3908]	-1.28
GUUUCUGUUGUCUGAAAGGAAAGAAAG [hsa-mir-520e]	-1.01
GUUUGAUAGUUUAGACACAAAC [hsa-mir-3591]	0.0903
GUUUGCAAGGGGUGUUUCUGUCCAUGGUCAGGC [hsa-mir-4283-1_4283-2]	1.19
GUUUGCCUGUUAAUGAAUUCAAAC [hsa-mir-3129]	-0.522
GUUUGGCAGGACAGUUUCCAAGC [hsa-mir-6779]	-0.893
GUUUGGGUGCGGUUGGGAGUCUCUAAU [hsa-mir-200c]	0.194
GUUUUACUAUGAUGAGGUGUGCCAUCCACCCCAUCAUAGUAAAC [hsa-mir-606]	-0.172

Sequence	pull-down binding Z-score
GUUUUUUAAGAGGAAGGGAGACCUAAGCUAGCA [hsa-mir-4481]	0.269
UAAAGAGUAUUCAACAUC [hsa-mir-1245b]	-0.935
UAAGAGUAAUAGCUCUCUAGGUUAUUAUGAAUA [hsa-mir-5692c-1]	-0.762
UAAGUGUCCUAGCACUUA [hsa-mir-374b]	0.214
UAAGUGUUAUAGCACUUA [hsa-mir-374a]	-0.753
UAAGUUGUGAUCAUACCA [hsa-mir-1273g]	-1.51
UAAUAACUGACAAACAGACAAUUG [hsa-mir-4774]	-0.873
UAAUAGCAAUCCUUAAAUGCCAUUA [hsa-mir-4477b]	-0.537
UAAUAUGCACUAUAAAUAUAUUG [hsa-mir-450a-1]	-0.725
UAAUAUGUAAUAUAAAUGUAUUG [hsa-mir-450a-2]	-0.938
UAAUCACAGGCCACAUUUCUGAAUA [hsa-mir-1295b]	-1.08
UAAUGAUUGGAGUCAUUUUCAGAGCAUUA [hsa-mir-3202-1]	1.44
UAAUGCUCUGAAAAUGACUCCAAUCAUUA [hsa-mir-3202-2]	-1.64
UACAAUUUUUUUUUUUUUAAAUUUUA [hsa-mir-1303]	0.8
UACAUAGUUCAUGCUGAGGCCGGGAUUUCAUGCAGAAAACUGGUUGCAAAAGGUGCUGAAG [hsa-mir-6085]	-0.725
UACUAACAGCACUGGAGGGUGUA [hsa-mir-142]	2.68
UAGACAAUGGUUUCAUCAUUUCGUCUG [hsa-mir-4427]	-0.055
UAGAGGGUAAAAUUAAUAACCUUCUA [hsa-mir-628]	0.0533
